# From patent US20220402983A1 (Janssen / Centocor, published 2022)
# Bridges are numbered along the chain shown (N, C = ends). Where no end group is shown, it is not given here. [ ]: non-standard residue; d: D form. Trp(7-Me) = Cc1cccc2c(C[C@H](N)C(=O)O)c[nH]c12; 2Nal = N[C@@H](Cc1ccc2ccccc2c1)C(=O)O; AEF = NCCOc1ccc(C[C@H](N)C(=O)O)cc1; αMeF = C[C@](N)(Cc1ccccc1)C(=O)O; Pen = CC(C)(S)[C@H](N)C(=O)O; αMeK = C[C@](N)(CCCCN)C(=O)O; αMeC = C[C@](N)(CS)C(=O)O; Ac5c = NC1(C(=O)O)CCCC1; Thp = NC1(C(=O)O)CCOCC1; Abu = CC[C@H](N)C(=O)O
# T1: human IL-23R (interleukin-23 receptor) (human, UniProt Q5VWK5 24-629)
# T1 sequence (looked up): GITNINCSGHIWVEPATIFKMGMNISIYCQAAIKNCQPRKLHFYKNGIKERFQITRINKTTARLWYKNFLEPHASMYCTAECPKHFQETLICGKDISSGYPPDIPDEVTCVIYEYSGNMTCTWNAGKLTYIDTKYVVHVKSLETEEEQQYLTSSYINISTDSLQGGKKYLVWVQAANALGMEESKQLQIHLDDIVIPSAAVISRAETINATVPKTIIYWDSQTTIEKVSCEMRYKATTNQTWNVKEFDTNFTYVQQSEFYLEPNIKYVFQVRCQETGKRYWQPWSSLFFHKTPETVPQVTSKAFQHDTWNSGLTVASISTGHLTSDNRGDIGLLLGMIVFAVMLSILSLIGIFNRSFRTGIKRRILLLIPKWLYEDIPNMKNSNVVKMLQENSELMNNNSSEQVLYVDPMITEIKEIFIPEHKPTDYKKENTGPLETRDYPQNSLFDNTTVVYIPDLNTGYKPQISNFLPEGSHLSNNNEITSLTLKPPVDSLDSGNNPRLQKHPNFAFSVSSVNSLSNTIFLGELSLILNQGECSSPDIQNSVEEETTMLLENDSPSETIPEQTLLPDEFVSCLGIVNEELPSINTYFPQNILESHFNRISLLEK
# B1: Compound No. 90 (peptide)
# peptide: Ac-[dR][Pen]NT[Trp(7-Me)]Q[Pen][AEF][2Nal][Thp]EN[Thp]-NH2
# modifications: disulfide 2-7
# SMILES: CC(=O)N[C@H](CCCNC(=N)N)C(=O)N[C@@H]1C(=O)N[C@@H](CC(N)=O)C(=O)N[C@@H]([C@@H](C)O)C(=O)N[C@@H](Cc2c[nH]c3c(C)cccc23)C(=O)N[C@@H](CCC(N)=O)C(=O)N[C@H](C(=O)N[C@@H](Cc2ccc(OCCN)cc2)C(=O)N[C@@H](Cc2ccc3ccccc3c2)C(=O)NC2(C(=O)N[C@@H](CCC(=O)O)C(=O)N[C@@H](CC(N)=O)C(=O)NC3(C(N)=O)CCOCC3)CCOCC2)C(C)(C)SSC1(C)C
# B2: Compound No. 93 (peptide)
# peptide: Ac-[dR][Pen]NT[Trp(7-Me)]Q[Pen][AEF][2Nal][Ac5c]EN[αMeF]-NH2
# modifications: disulfide 2-7
# SMILES: CC(=O)N[C@H](CCCNC(=N)N)C(=O)N[C@@H]1C(=O)N[C@@H](CC(N)=O)C(=O)N[C@@H]([C@@H](C)O)C(=O)N[C@@H](Cc2c[nH]c3c(C)cccc23)C(=O)N[C@@H](CCC(N)=O)C(=O)N[C@H](C(=O)N[C@@H](Cc2ccc(OCCN)cc2)C(=O)N[C@@H](Cc2ccc3ccccc3c2)C(=O)NC2(C(=O)N[C@@H](CCC(=O)O)C(=O)N[C@@H](CC(N)=O)C(=O)N[C@@](C)(Cc3ccccc3)C(N)=O)CCCC2)C(C)(C)SSC1(C)C
# B3: Compound No. 94 (peptide)
# peptide: Ac-[dR][Pen]NT[Trp(7-Me)]K(Ac)[Pen][AEF][2Nal][Ac5c]EN[αMeF]-NH2
# modifications: disulfide 2-7
# SMILES: CC(=O)NCCCC[C@@H]1NC(=O)[C@H](Cc2c[nH]c3c(C)cccc23)NC(=O)[C@H]([C@@H](C)O)NC(=O)[C@H](CC(N)=O)NC(=O)[C@@H](NC(=O)[C@@H](CCCNC(=N)N)NC(C)=O)C(C)(C)SSC(C)(C)[C@@H](C(=O)N[C@@H](Cc2ccc(OCCN)cc2)C(=O)N[C@@H](Cc2ccc3ccccc3c2)C(=O)NC2(C(=O)N[C@@H](CCC(=O)O)C(=O)N[C@@H](CC(N)=O)C(=O)N[C@@](C)(Cc3ccccc3)C(N)=O)CCCC2)NC1=O
# B4: Compound No. 85 (peptide)
# peptide: [dR][Abu]QTWQC[AEF][2Nal][Thp]EN[αMeF]-NH2
# modifications: thioether 2-7; not fully specified (N-terminus); printed as pr-[(D)Arg]-[Abu]-Q-T-W-Q-[Cys]-Phe[4-(2-aminoethoxy)]-[2-Nal]-[THP]-E-N-[a-MePhe]-NH2
# B5: Compound No. 89 (peptide)
# peptide: XNTXQXFXKKNF
# modifications: Ac-[Pen]-N-T-[W(7-Me)]-Q-[Pen]-Phe[4-(2-aminoethoxy)]-[2-Nal]-[a-MeLys]-[Lys(Ac)]-N-[a-MePhe]-NH2; cyclized: Pen-Pen disulfide bond
# B6: Compound No. 82 (peptide)
# peptide: Ac-[Pen]QTWK(Ac)[Pen][AEF][2Nal][αMeK]K(Ac)N[αMeF]-NH2
# modifications: disulfide 1-6
# SMILES: CC(=O)NCCCC[C@@H]1NC(=O)[C@H](Cc2c[nH]c3ccccc23)NC(=O)[C@H]([C@@H](C)O)NC(=O)[C@H](CCC(N)=O)NC(=O)[C@@H](NC(C)=O)C(C)(C)SSC(C)(C)[C@@H](C(=O)N[C@@H](Cc2ccc(OCCN)cc2)C(=O)N[C@@H](Cc2ccc3ccccc3c2)C(=O)N[C@@](C)(CCCCN)C(=O)N[C@@H](CCCCNC(C)=O)C(=O)N[C@@H](CC(N)=O)C(=O)N[C@@](C)(Cc2ccccc2)C(N)=O)NC1=O
# B7: Compound No. 88 (peptide)
# peptide: Ac-[dR][Pen]NTWK(Ac)[Pen][AEF][2Nal][Ac5c]EN[Thp]-NH2
# modifications: disulfide 2-7
# SMILES: CC(=O)NCCCC[C@@H]1NC(=O)[C@H](Cc2c[nH]c3ccccc23)NC(=O)[C@H]([C@@H](C)O)NC(=O)[C@H](CC(N)=O)NC(=O)[C@@H](NC(=O)[C@@H](CCCNC(=N)N)NC(C)=O)C(C)(C)SSC(C)(C)[C@@H](C(=O)N[C@@H](Cc2ccc(OCCN)cc2)C(=O)N[C@@H](Cc2ccc3ccccc3c2)C(=O)NC2(C(=O)N[C@@H](CCC(=O)O)C(=O)N[C@@H](CC(N)=O)C(=O)NC3(C(N)=O)CCOCC3)CCCC2)NC1=O
# B8: Compound No. 84 (peptide)
# peptide: Ac-[Pen]QTWK(Ac)[Pen][AEF][2Nal][αMeK]K(Ac)N[Thp]-NH2
# modifications: disulfide 1-6
# SMILES: CC(=O)NCCCC[C@@H]1NC(=O)[C@H](Cc2c[nH]c3ccccc23)NC(=O)[C@H]([C@@H](C)O)NC(=O)[C@H](CCC(N)=O)NC(=O)[C@@H](NC(C)=O)C(C)(C)SSC(C)(C)[C@@H](C(=O)N[C@@H](Cc2ccc(OCCN)cc2)C(=O)N[C@@H](Cc2ccc3ccccc3c2)C(=O)N[C@@](C)(CCCCN)C(=O)N[C@@H](CCCCNC(C)=O)C(=O)N[C@@H](CC(N)=O)C(=O)NC2(C(N)=O)CCOCC2)NC1=O
# B9: Compound No. 97 (peptide)
# peptide: Ac-[dR][Pen]QTWQ[Pen][AEF][2Nal][Thp]EN[αMeF]-NH2
# modifications: disulfide 2-7
# SMILES: CC(=O)N[C@H](CCCNC(=N)N)C(=O)N[C@@H]1C(=O)N[C@@H](CCC(N)=O)C(=O)N[C@@H]([C@@H](C)O)C(=O)N[C@@H](Cc2c[nH]c3ccccc23)C(=O)N[C@@H](CCC(N)=O)C(=O)N[C@H](C(=O)N[C@@H](Cc2ccc(OCCN)cc2)C(=O)N[C@@H](Cc2ccc3ccccc3c2)C(=O)NC2(C(=O)N[C@@H](CCC(=O)O)C(=O)N[C@@H](CC(N)=O)C(=O)N[C@@](C)(Cc3ccccc3)C(N)=O)CCOCC2)C(C)(C)SSC1(C)C
# B10: Compound No. 83 (peptide)
# peptide: [dR][Abu]QTWQ[αMeC][AEF][2Nal][Thp]EN[αMeF]-NH2
# modifications: thioether 2-7; not fully specified (N-terminus); printed as pr-[(D)Arg]-[Abu]-Q-T-W-Q-[aMeCys]-Phe[4-(2-aminoethoxy)]-[2-Nal]-[THP]-E-N-[a-MePhe]-NH2
# B11: Compound No. 91 (peptide)
# peptide: Ac-[dR][Pen]NT[Trp(7-Me)]Q[Pen][AEF][2Nal][Thp]EN[αMeF]-NH2
# modifications: disulfide 2-7
# SMILES: CC(=O)N[C@H](CCCNC(=N)N)C(=O)N[C@@H]1C(=O)N[C@@H](CC(N)=O)C(=O)N[C@@H]([C@@H](C)O)C(=O)N[C@@H](Cc2c[nH]c3c(C)cccc23)C(=O)N[C@@H](CCC(N)=O)C(=O)N[C@H](C(=O)N[C@@H](Cc2ccc(OCCN)cc2)C(=O)N[C@@H](Cc2ccc3ccccc3c2)C(=O)NC2(C(=O)N[C@@H](CCC(=O)O)C(=O)N[C@@H](CC(N)=O)C(=O)N[C@@](C)(Cc3ccccc3)C(N)=O)CCOCC2)C(C)(C)SSC1(C)C
# B12: Compound No. 87 (peptide)
# peptide: XNTXQXFXKKNX
# modifications: Ac-[Pen]-N-T-[W(7-Me)]-Q-[Pen]-Phe[4-(2-aminoethoxy)]-[2-Nal]-[a-MeLys]-[Lys(Ac)]-N-[THP]-NH2; cyclized: Pen-Pen disulfide bond
# B13: Compound No. 95 (peptide)
# peptide: Ac-[Pen]NTWK(Ac)[Pen][AEF][2Nal][αMeK]K(Ac)N[Thp]-NH2
# modifications: disulfide 1-6
# SMILES: CC(=O)NCCCC[C@@H]1NC(=O)[C@H](Cc2c[nH]c3ccccc23)NC(=O)[C@H]([C@@H](C)O)NC(=O)[C@H](CC(N)=O)NC(=O)[C@@H](NC(C)=O)C(C)(C)SSC(C)(C)[C@@H](C(=O)N[C@@H](Cc2ccc(OCCN)cc2)C(=O)N[C@@H](Cc2ccc3ccccc3c2)C(=O)N[C@@](C)(CCCCN)C(=O)N[C@@H](CCCCNC(C)=O)C(=O)N[C@@H](CC(N)=O)C(=O)NC2(C(N)=O)CCOCC2)NC1=O
# Target: T1, human IL-23R (interleukin-23 receptor)
# Test: cell-based or functional assay
row,Binder,PBMC pSTAT3 IC50 (nM)
1,B1,3.7
2,B2,4.6
3,B3,12
4,B4,7.6
5,B5,12
6,B6,54
7,B7,3.7
8,B8,54
9,B9,31
10,B10,33
11,B11,4.1
12,B12,3.6
13,B13,22
